System: MS2 coat protein
Test: apparent KD of MS2 coat protein; designed switch direction (-1 OFF switch, 1 ON switch): -1; higher = weaker reporter binding
In short: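 Transcription of designed RNA switches on Illumina chips was done by stalled E. coli RNA polymerase. SNAP-549-labelled MS2 coat protein was then titrated in doubling steps from 0.7 or 1.5 nM to 3 µM, with steps of 0.8–1.5 h at the lowest and 10–20 min at the highest concentration. The per-design median over clusters of curve-fitted normalised fluorescence is reported as apparent KD.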

[1] = Eterna round: R95, input ligand: FMN 200 uM
[2] = Eterna round: R95, input ligand: microRNA oligo, concentration not stated
[3] = Eterna round: R95, input ligand: none

AGUAACCGGGCUUUUUGCUACAUGAGGAUCACCCAUGUUUAAGCGGAGGGAUUGAUCGUCCUAAAUUCUUUAGUCGG [Eternabot (L2) Solution 8] (Eterna round: R97, puzzle: Sensor, turn-off variant 1)
apparent KD of MS2 coat protein (input ligand: FMN 200 uM): 16.8 nM
apparent KD of MS2 coat protein (input ligand: none): 17.4 nM

AGUAACCGUCACGAAAGUGAUGGUUACACAAGCAUAUGUACAUGAGGAUCACCCAUGUCCUCAACUGCUCGUCUUAU [Sensor 3 - 55] (puzzle: Sensor v3, turn-off variant 2)
apparent KD of MS2 coat protein [1]: 296 nM
apparent KD of MS2 coat protein [2]: 385 nM
apparent KD of MS2 coat protein [3]: 424 nM

AGUAACUAUCACGAAAGUGAUAGUUACAAAACAAGUGGAACAUGAGGAUCACCCAUGUCCUCAUUUGCUCGUCUUAU [Sensor 3 - 4] (puzzle: Sensor v3, turn-off variant 2)
apparent KD of MS2 coat protein [1]: 107 nM
apparent KD of MS2 coat protein [2]: 238 nM
apparent KD of MS2 coat protein [3]: 166 nM

AGUAACUAUCACGAAAGUGAUAGUUACAAAACAGGUGAAACAUGAGGAUCACCCAUGUCCUCAUUUGCUCGUCUUAU [Sensor 3 - 3] (puzzle: Sensor v3, turn-off variant 2)
apparent KD of MS2 coat protein [1]: 793 nM
apparent KD of MS2 coat protein [2]: 384 nM
apparent KD of MS2 coat protein [3]: 857 nM

AGUAACUAUCACGAAAGUGAUAGUUACACAAGCAGUGAAACAUGAGGAUCACCCAUGUCCUCAAUUGCUCGUCUUAU [Sensor 3 - 31] (puzzle: Sensor v3, turn-off variant 2)
apparent KD of MS2 coat protein [1]: 47.8 nM
apparent KD of MS2 coat protein [2]: 194 nM
apparent KD of MS2 coat protein [3]: 49.6 nM

AGUAACUCAAGAGGAUAUCACAUGAGGAUCACCCAUGUAUAGCGCGCUGCGCUAGUCCUCGUAUUUGAGAAGGUUUGAUAAAUG [Riausve] (Eterna round: R96, puzzle: Exclusion NG 2)
apparent KD of MS2 coat protein (input ligand: FMN 200 uM): 13 nM
apparent KD of MS2 coat protein (input ligand: microRNA oligo, concentration not stated): 10.8 nM
apparent KD of MS2 coat protein (input ligand: none): 15.7 nM

AGUAAGCUAGGAUAUGCUUUGGGAAAGCAUUCCUUCGAUAAACUUGAGGAUCACCCAAGUAGAAGGAGCUAAAU [jl-ex2.4.49 ViennaUCT mod] (Eterna round: R97, puzzle: Exclusion 2)
apparent KD of MS2 coat protein (input ligand: FMN 200 uM): 17.5 nM
apparent KD of MS2 coat protein (input ligand: none): 15.4 nM

AGUAAGCUAGGAUAUGCUUUGGGAAAGCAUUCCUUCGAUAAACUUGAGGAUCACCCAAGUAGAAGGAGCUUACA [salish99_ex2_r4_004] (Eterna round: R97, puzzle: Exclusion 2)
apparent KD of MS2 coat protein (input ligand: FMN 200 uM): 20.2 nM
apparent KD of MS2 coat protein (input ligand: none): 13.8 nM

AGUACGAUGCGUGCUGACAUGCGUCGUGCAGCAGGUGAUACAUGAGGAUCACCCAUGUCCUCAUUUGCUCGUCUUGA [Mat - Sensor v3 - Turn-off var 2 - D19] (puzzle: Sensor v3, turn-off variant 2)
apparent KD of MS2 coat protein [1]: 28.5 nM
apparent KD of MS2 coat protein [2]: 499 nM
apparent KD of MS2 coat protein [3]: 28.4 nM

AGUACUAACACGAAAGUGUUAGUACAAUAAGCUUGUAUUACAUGAGGAUCACCCAUGUCCUCAUAAGCUCGUCUUAU [Mat - Sensor v3 - Turn-off var 2 - D46] (puzzle: Sensor v3, turn-off variant 2)
apparent KD of MS2 coat protein [1]: 316 nM
apparent KD of MS2 coat protein [2]: 14 nM
apparent KD of MS2 coat protein [3]: 881 nM

AGUACUAACACGAAAGUGUUAGUACAAUAAGCUUGUGAAACAUGAGGAUCACCCAUGUCCUCAUAAGCUCGUCUUAG [salish99_TOv2_r3_003] (puzzle: Sensor v3, turn-off variant 2)
apparent KD of MS2 coat protein [1]: 16.4 nM
apparent KD of MS2 coat protein [2]: 280 nM
apparent KD of MS2 coat protein [3]: 15.4 nM

AGUACUAACACGAAAGUGUUAGUACAAUAAGCUUGUGAAACAUGAGGAUCACCCAUGUCCUCAUGAGCUCGUCUUAU [salish99_TOv2_r3_051] (puzzle: Sensor v3, turn-off variant 2)
apparent KD of MS2 coat protein [1]: 77.8 nM
apparent KD of MS2 coat protein [2]: 5.95 nM
apparent KD of MS2 coat protein [3]: 67.9 nM

AGUACUAACACGAAAGUGUUAGUACUGUAGGUUUGUGUUACAUGAGGAUCACCCAUGUCCUCAUAAGCUCGUCUUGU [Mat - Sensor v3 - Turn-off var 2 - D96] (puzzle: Sensor v3, turn-off variant 2)
apparent KD of MS2 coat protein [1]: 380 nM
apparent KD of MS2 coat protein [2]: 152 nM
apparent KD of MS2 coat protein [3]: 368 nM

Source: the supplement of paper PMC9170038
